# Experimental data as given in the Immune Epitope Database (IEDB).
# Experiments:
# HLA-A*30:01 = test: IEDB peptide-MHC binding, purified MHC/competitive/radioactivity; filed as Kd, often an IC50 or EC50 that approximates it; ≥ and ≤ were set here for values at or beyond the usual limits of such assays; settings: source organism: Vaccinia virus WR
# HLA-B*15:01 = test: as above; settings: source organism: Vaccinia virus WR
# HLA-B*15:03 = test: as above; settings: source organism: Vaccinia virus WR
# HLA-B*08:01 = test: as above; settings: source organism: Vaccinia virus WR
# HLA-A*32:01 = test: as above
# HLA-A*02:03 = test: as above
# HLA-A*02:17 = test: as above
# HLA-A*02:01 = test: as above
# HLA-A*68:02 = test: as above
# HLA-A*02:06 = test: as above; settings: source organism: Trypanosoma cruzi
# HLA-A*02:02 = test: as above; settings: source organism: Trypanosoma cruzi
# HLA-B*07:02 = test: as above
# HLA-B*53:01 = test: as above; settings: source organism: Dengue virus 3 Martinique/1243/1999
# HLA-B*44:03 = test: as above; settings: source organism: Murray valley encephalitis virus (strain MVE-1-51)
# HLA-B*18:01 = test: IEDB peptide-MHC binding, purified MHC/direct/fluorescence; filed as Kd, often an IC50 or EC50 that approximates it; ≥ and ≤ were set here for values at or beyond the usual limits of such assays
# HLA-B*35:01 = test: IEDB peptide-MHC binding, purified MHC/competitive/radioactivity; filed as Kd, often an IC50 or EC50 that approximates it; ≥ and ≤ were set here for values at or beyond the usual limits of such assays; settings: source organism: Dengue virus 4 Philippines/H241/1956
# HLA-A*26:01 = test: as above; settings: source organism: Dengue virus 4 Philippines/H241/1956
# HLA-B*44:02 = test: IEDB peptide-MHC binding, purified MHC/direct/fluorescence; filed as Kd, often an IC50 or EC50 that approximates it; ≥ and ≤ were set here for values at or beyond the usual limits of such assays; settings: source organism: dengue virus type 1
# [1] = source organism: Vaccinia virus WR
# [2] = source organism: Dengue virus 2 Jamaica/1409/1983
# [3] = source organism: Dengue virus 3 China/80-2/1980
# [4] = source organism: Dengue virus 1 Brazil/97-11/1997
# [5] = source organism: Trypanosoma cruzi
# [6] = source organism: Dengue virus 4 Philippines/H241/1956
# [7] = source organism: Dengue virus 1 Singapore/S275/1990
# [8] = source organism: Dengue virus 4 Dominica/814669/1981
sequence,measurement,setting,value
IASTLIVTI,Kd,HLA-A*30:01,10.1 nM
same,Kd,HLA-B*15:01,156 nM
same,Kd,HLA-B*15:03,110 nM
same,Kd,HLA-B*08:01,8400 nM
same,Kd,HLA-A*32:01; [1],73.5 nM
IMAAILAYT,Kd,HLA-A*02:03; [2],5.2 nM
same,Kd,HLA-A*02:17; [2],4230 nM
same,Kd,HLA-A*02:01; [2],10.4 nM
KMDLGVPLL,Kd,HLA-A*02:17; [3],698 nM
same,Kd,HLA-A*02:01; [3],5.29 nM
TTSGTYVSA,Kd,HLA-A*68:02; [4],24 nM
LSIFFYSSF,Kd,HLA-A*30:01,131 nM
same,Kd,HLA-B*15:01,17.3 nM
same,Kd,HLA-B*15:03,0.218 nM
same,Kd,HLA-A*32:01; [1],129 nM
AINNRICVM,Kd,HLA-A*30:01,135 nM
same,Kd,HLA-B*15:01,50.6 nM
same,Kd,HLA-B*15:03,65.1 nM
same,Kd,HLA-B*08:01,423 nM
same,Kd,HLA-A*32:01; [1],1240 nM
LLGLCGFSAL,Kd,HLA-A*02:03; [5],14.1 nM
same,Kd,HLA-A*68:02; [5],≥ 125000 nM
same,Kd,HLA-A*02:06,629 nM
same,Kd,HLA-A*02:02,10.4 nM
same,Kd,HLA-A*02:01; [5],365 nM
NPRLCTREE,Kd,HLA-B*07:02; [6],213 nM
FLAIPPTAGI,Kd,HLA-A*02:03; [4],12.8 nM
same,Kd,HLA-A*02:17; [7],4.2 nM
same,Kd,HLA-A*02:01; [7],11.6 nM
IPQWQPSKGW,Kd,HLA-B*53:01,73.1 nM
SQVKCCHYF,Kd,HLA-A*30:01,80.6 nM
same,Kd,HLA-B*15:01,0.921 nM
same,Kd,HLA-B*15:03,0.92 nM
same,Kd,HLA-B*08:01,7240 nM
same,Kd,HLA-A*32:01; [1],11400 nM
LEFEALGFL,Kd,HLA-B*44:03,4970 nM
same,Kd,HLA-B*18:01; source organism: Alkhumra hemorrhagic fever virus,2.8 nM
SPGTSGSPIV,Kd,HLA-B*07:02; [2],88.1 nM
SLNTLTISF,Kd,HLA-B*15:03,475 nM
QPKPGTRMVM,Kd,HLA-B*35:01,1230 nM
same,Kd,HLA-B*07:02; [6],8.33 nM
MCIKYTACM,Kd,HLA-A*30:01,≥ 26600 nM
same,Kd,HLA-B*15:01,954 nM
same,Kd,HLA-B*15:03,51.9 nM
same,Kd,HLA-B*08:01,7.75 nM
same,Kd,HLA-A*32:01; [1],16200 nM
ETALMVIGMA,Kd,HLA-A*68:02; [6],5.23 nM
same,Kd,HLA-A*26:01,390 nM
FLVDGLSSI,Kd,HLA-B*15:03,3160 nM
NIVSSVNMV,Kd,HLA-A*68:02; source organism: Dengue virus 3 Sri Lanka/1266/2000,212 nM
TSVGVNMCTL,Kd,HLA-A*68:02; [7],37.5 nM
KLSMGLITI,Kd,HLA-A*02:03; [8],23.9 nM
same,Kd,HLA-A*02:17; [8],1810 nM
same,Kd,HLA-A*02:01; [8],20.5 nM
same,Kd,HLA-A*32:01; [8],19.8 nM
LAHYIGTSL,Kd,HLA-B*07:02; source organism: Dengue virus 3 Martinique/1243/1999,20 nM
VEGLGLQKL,Kd,HLA-B*18:01; source organism: West Nile virus,1280 nM
FQYVSYSNF,Kd,HLA-A*30:01,12500 nM
same,Kd,HLA-B*15:03,0.261 nM
REDQWCGSL,Kd,HLA-B*18:01; source organism: dengue virus type 1,11600 nM
same,Kd,HLA-B*44:02,≥ 20000 nM
RQFYNANVL,Kd,HLA-B*15:03,0.236 nM
same,Kd,HLA-A*32:01; [1],37.2 nM
FTNNKFTLS,Kd,HLA-A*02:03; [5],460 nM
same,Kd,HLA-A*68:02; [5],496 nM
same,Kd,HLA-A*02:06,328 nM
same,Kd,HLA-A*02:02,10100 nM
same,Kd,HLA-A*02:01; [5],≥ 50000 nM
SKVFFGPIY,Kd,HLA-B*15:03,1.02 nM
TLYAVATTFV,Kd,HLA-A*02:03; [2],2.65 nM
same,Kd,HLA-A*68:02; [2],11.5 nM
same,Kd,HLA-A*02:17; [2],490 nM
same,Kd,HLA-A*02:01; [2],12.6 nM
ALLELFNAF,Kd,HLA-A*30:01,357 nM
same,Kd,HLA-B*15:01,2.48 nM
same,Kd,HLA-B*15:03,0.241 nM
same,Kd,HLA-B*08:01,2690 nM
same,Kd,HLA-A*32:01; [1],166 nM
